T1: recombinant mouse sTNFR1 (mouse, UniProt P25118 30-212)
T1 sequence (looked up): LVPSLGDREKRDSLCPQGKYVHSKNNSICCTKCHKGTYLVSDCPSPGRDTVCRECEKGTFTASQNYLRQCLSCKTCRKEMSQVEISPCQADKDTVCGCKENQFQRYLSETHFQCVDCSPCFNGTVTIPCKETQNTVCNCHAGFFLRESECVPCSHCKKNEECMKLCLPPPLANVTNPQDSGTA


Columns and labels:
[1] = molecular target: T1, recombinant mouse sTNFR1; assay: cell-based or functional assay
[2] = molecular target: T1, recombinant mouse sTNFR1; assay: SPR; Biacore T200, HBS-EP+, 25°C; mouse or human TNFR1 amine-coupled on CM5 chip; DMS5540 injected at 7 concentrations, 2-fold dilutions from 16 nM to 0.125 nM, 50 μl/min; 1:1 binding model; details: both partners purified

Kd [2] [nM] | koff [2] [s⁻¹] | kon [2] [M⁻¹ s⁻¹] | Binder | EC50 of inhibition of mouse TNF-α (20 pg/ml) induced cytotoxicity in mouse L929 cells [1] [nM]
 |  |  | DOM1m-21-23 (antibody, V domains shown) VH: EVQLLESGGGLVQPGGSLRLSCAASGFTFNRYSMGWLRQAPGKGLEWVSRIDSYGRGTYYEDPVKGRFSISRDNSKNTLYLQMNSLRAEDTAVYYCAKISQFGSNAFDYWGQGTQVTVSS | 1.7
0.27 | 0.000217 | 798000 | DMS5540 (bispecific antibody, anti-mouse TNFR1 VH dAb DOM1m-21-23; three residue linker (Ala-Ser-Thr); About 25 kDa; two human single variable domains on one chain; also called mouse TNFR1 antagonist; genetic fusion of DOM1m-21-23 with the AlbudAb DOM7h-11-12; source: E. coli BL21(DE3) strain derivatives, purified from culture supernatant (Protein-A, cation exchange, SEC when necessary)) EVQLLESGGGLVQPGGSLRLSCAASGFTFNRYSMGWLRQAPGKGLEWVSRIDSYGRGTYYEDPVKGRFSISRDNSKNTLYLQMNSLRAEDTAVYYCAKISQFGSNAFDYWGQGTQVTVSSASTDIQMTQSPSSLSASVGDRVTITCRASRPIGTMLSWYQQKPGKAPKLLILFGSRLQSGVPSRFSGSGSGTDFTLTISSLQPEDFATYYCAQAGTHPTTFGQGTKVEIKR | 1.3
